One block for each molecule: values may come before it.
Tests used:
uracil = assay: scintillation proximity assay (homologous competition with 3H-uracil)
UraA = molecular target: T1, UraA (Escherichia coli, UniProt P0AGM7); assay: differential scanning fluorimetry (CPM dye); format: binding; conditions: 20 mM Hepes pH 7.5, 150 mM NaCl, 0.2% DM
T1 construct: full-length ORF, expressed in E. coli MC1061 from pBXC3GH (tag removed with HRV-3C protease), decylmaltoside-solubilized; C-terminal biotinylated AVI-tag for SPA; WT and G112P monomeric, P330G dimeric, G320P both fractions

[1] = molecular target: T2, wild type UraA (E. coli uracil permease) (E. coli, UniProt P0AGM7); assay: differential scanning fluorimetry; UraA variants 0.1 mg/mL in 20 mM Hepes pH 7.5, 150 mM NaCl, 0.2% DM, without uracil, in absence and presence of Sy45; CPM dye, 25 to 90 °C at 2 °C/min; conditions: both partners purified
T2 construct: uracil permease UraA, E. coli; open reading frame amplified from genomic DNA of E. coli MC1061; Membrane protein in 0.2% decylmaltoside; elutes as monomers and dimers; A few residues of the FX cloning sites and of the 3C site probably remain after cleavage (surmised); also called UraA(WT); source: E. coli MC1061 (pBXC3GH), purified (decylmaltoside-solubilised, Ni-NTA, eluted with HRV-3C protease, …)

Kd (uracil; absence of Sy45): 7 nM
Molecule: wild type UraA (E. coli uracil permease) (from UniProt P0AGM7) P330G

Molecule: O=c1cc[nH]c(=O)[nH]1 [uracil]
Tm with 1 mM uracil (apo Tm 54.2 ± 0.2 °C) (UraA): 64.1 ± 0.1 °C

Kd (uracil; absence of Sy45): 35 nM | Kd (uracil; presence of Sy45 (panel titled UraA(G320P)-Sy45)): 144 nM
Molecule: wild type UraA (E. coli uracil permease) (from UniProt P0AGM7) G320P

B1: sybody Sy45 (synthetic nanobody) (VHH)
VHH: QVQLVESGGGSVQAGGSLRLSCAASGNIAYIHYLGWFRQAPGKEREGVAALSTTLGNTYYADSVKGRFTVSLDNAKNTVYLQMNSLKPEDTALYYCAAAYFGYSSPLAHERYMYWGQGTQVTVSA
notes: sybody with a convex paratope, selected from a synthetic library against wild type UraA; also called synthetic single-domain antibody; conformational probe
thermostabilization (increase of melting temperature) [1]: 16.7 °C
